T1: EsCas13d, nuclease-dead (Eubacterium siraeum, UniProt B0MS50, R295A;H300A;R849A;H854A)
T1 sequence: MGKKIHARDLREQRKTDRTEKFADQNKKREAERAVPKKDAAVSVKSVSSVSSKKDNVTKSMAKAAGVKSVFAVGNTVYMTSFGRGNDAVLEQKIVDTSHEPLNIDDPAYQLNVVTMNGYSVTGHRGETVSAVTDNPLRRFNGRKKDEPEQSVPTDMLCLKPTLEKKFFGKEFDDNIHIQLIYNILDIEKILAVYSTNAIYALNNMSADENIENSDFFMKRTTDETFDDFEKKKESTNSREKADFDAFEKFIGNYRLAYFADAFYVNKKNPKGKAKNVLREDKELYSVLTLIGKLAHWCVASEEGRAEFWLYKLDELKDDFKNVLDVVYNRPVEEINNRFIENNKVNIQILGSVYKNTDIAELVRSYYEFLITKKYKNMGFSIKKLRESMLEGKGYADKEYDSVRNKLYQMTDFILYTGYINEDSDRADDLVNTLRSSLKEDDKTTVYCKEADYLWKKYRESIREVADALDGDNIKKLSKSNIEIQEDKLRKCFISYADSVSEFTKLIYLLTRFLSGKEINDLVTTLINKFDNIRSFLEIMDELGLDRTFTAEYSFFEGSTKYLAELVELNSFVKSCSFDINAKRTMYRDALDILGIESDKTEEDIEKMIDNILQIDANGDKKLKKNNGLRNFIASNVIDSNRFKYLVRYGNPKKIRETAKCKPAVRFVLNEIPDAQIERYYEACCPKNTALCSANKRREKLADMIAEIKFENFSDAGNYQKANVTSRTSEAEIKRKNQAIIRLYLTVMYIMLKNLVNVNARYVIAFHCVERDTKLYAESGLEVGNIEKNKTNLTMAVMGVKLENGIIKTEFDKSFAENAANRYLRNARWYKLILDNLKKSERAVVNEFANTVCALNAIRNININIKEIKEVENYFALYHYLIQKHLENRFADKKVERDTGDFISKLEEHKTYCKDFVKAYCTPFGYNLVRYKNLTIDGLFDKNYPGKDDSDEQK

B1: target 1 MT 5'PFS UCG 3'PFS CUU (mixed)
RNA 1: CACCCGUGCAAAAAUGCAGGGGUCUAAAACUGAGCGGAUAACCUCUCUAUGG
RNA 2: GGGAAUGGAUCCACAUCUACGAAUUCUCGCCAUAGAGAGGUUAUCCGCUCACUUAGAUCGGAAGAGCACACGU
B2: target 1 U3C,C6U (mixed)
RNA 1: CACCCGUGCAAAAAUGCAGGGGUCUAAAACUGAGCGGAUAACCUCUCUAUGG
RNA 2: GGGAAUGGAUCCACAUCUACGAAUUCGUACCAUAGAGAGGUUAUCUGCCCACCGAGAUCGGAAGAGCACACGU
B3: target 1 MT 5'PFS GAC 3'PFS AAG (mixed)
RNA 1: CACCCGUGCAAAAAUGCAGGGGUCUAAAACUGAGCGGAUAACCUCUCUAUGG
RNA 2: GGGAAUGGAUCCACAUCUACGAAUUCGACCCAUAGAGAGGUUAUCCGCUCAAAGAGAUCGGAAGAGCACACGU
B4: target 1 MT 5'PFS GGG 3'PFS AGU (mixed)
RNA 1: CACCCGUGCAAAAAUGCAGGGGUCUAAAACUGAGCGGAUAACCUCUCUAUGG
RNA 2: GGGAAUGGAUCCACAUCUACGAAUUCGGGCCAUAGAGAGGUUAUCCGCUCAAGUAGAUCGGAAGAGCACACGU
B5: target 1 MT 5'PFS UCG 3'PFS UAU (mixed)
RNA 1: CACCCGUGCAAAAAUGCAGGGGUCUAAAACUGAGCGGAUAACCUCUCUAUGG
RNA 2: GGGAAUGGAUCCACAUCUACGAAUUCUCGCCAUAGAGAGGUUAUCCGCUCAUAUAGAUCGGAAGAGCACACGU
B6: target 1 MT 5'PFS UCG 3'PFS UAA (mixed)
RNA 1: CACCCGUGCAAAAAUGCAGGGGUCUAAAACUGAGCGGAUAACCUCUCUAUGG
RNA 2: GGGAAUGGAUCCACAUCUACGAAUUCUCGCCAUAGAGAGGUUAUCCGCUCAUAAAGAUCGGAAGAGCACACGU
B7: target 1 MT 5'PFS GAC 3'PFS AAU (mixed)
RNA 1: CACCCGUGCAAAAAUGCAGGGGUCUAAAACUGAGCGGAUAACCUCUCUAUGG
RNA 2: GGGAAUGGAUCCACAUCUACGAAUUCGACCCAUAGAGAGGUUAUCCGCUCAAAUAGAUCGGAAGAGCACACGU
B8: target 1 MT 5'PFS GGG 3'PFS AGC (mixed)
RNA 1: CACCCGUGCAAAAAUGCAGGGGUCUAAAACUGAGCGGAUAACCUCUCUAUGG
RNA 2: GGGAAUGGAUCCACAUCUACGAAUUCGGGCCAUAGAGAGGUUAUCCGCUCAAGCAGAUCGGAAGAGCACACGU
B9: target 1 MT 5'PFS ACU 3'PFS CCG (mixed)
RNA 1: CACCCGUGCAAAAAUGCAGGGGUCUAAAACUGAGCGGAUAACCUCUCUAUGG
RNA 2: GGGAAUGGAUCCACAUCUACGAAUUCACUCCAUAGAGAGGUUAUCCGCUCACCGAGAUCGGAAGAGCACACGU
B10: target 1 MT 5'PFS UAG 3'PFS UGA (mixed)
RNA 1: CACCCGUGCAAAAAUGCAGGGGUCUAAAACUGAGCGGAUAACCUCUCUAUGG
RNA 2: GGGAAUGGAUCCACAUCUACGAAUUCUAGCCAUAGAGAGGUUAUCCGCUCAUGAAGAUCGGAAGAGCACACGU
B11: target 1 MT 5'PFS CAC 3'PFS AAG (mixed)
RNA 1: CACCCGUGCAAAAAUGCAGGGGUCUAAAACUGAGCGGAUAACCUCUCUAUGG
RNA 2: GGGAAUGGAUCCACAUCUACGAAUUCCACCCAUAGAGAGGUUAUCCGCUCAAAGAGAUCGGAAGAGCACACGU
B12: target 1 MT 5'PFS AGA 3'PFS AGC (mixed)
RNA 1: CACCCGUGCAAAAAUGCAGGGGUCUAAAACUGAGCGGAUAACCUCUCUAUGG
RNA 2: GGGAAUGGAUCCACAUCUACGAAUUCAGACCAUAGAGAGGUUAUCCGCUCAAGCAGAUCGGAAGAGCACACGU
B13: target 1 G12A,A20C (mixed)
RNA 1: CACCCGUGCAAAAAUGCAGGGGUCUAAAACUGAGCGGAUAACCUCUCUAUGG
RNA 2: GGGAAUGGAUCCACAUCUACGAAUUCGUACCCUAGAGAGAUUAUCCGCUCACCGAGAUCGGAAGAGCACACGU
B14: target 1 MT 5'PFS CUA 3'PFS CUC (mixed)
RNA 1: CACCCGUGCAAAAAUGCAGGGGUCUAAAACUGAGCGGAUAACCUCUCUAUGG
RNA 2: GGGAAUGGAUCCACAUCUACGAAUUCCUACCAUAGAGAGGUUAUCCGCUCACUCAGAUCGGAAGAGCACACGU
B15: target 1 MT 5'PFS GGG 3'PFS AGG (mixed)
RNA 1: CACCCGUGCAAAAAUGCAGGGGUCUAAAACUGAGCGGAUAACCUCUCUAUGG
RNA 2: GGGAAUGGAUCCACAUCUACGAAUUCGGGCCAUAGAGAGGUUAUCCGCUCAAGGAGAUCGGAAGAGCACACGU
B16: target 1 MT 5'PFS AGA 3'PFS AGU (mixed)
RNA 1: CACCCGUGCAAAAAUGCAGGGGUCUAAAACUGAGCGGAUAACCUCUCUAUGG
RNA 2: GGGAAUGGAUCCACAUCUACGAAUUCAGACCAUAGAGAGGUUAUCCGCUCAAGUAGAUCGGAAGAGCACACGU
B17: target 1 MT 5'PFS UCG 3'PFS UAC (mixed)
RNA 1: CACCCGUGCAAAAAUGCAGGGGUCUAAAACUGAGCGGAUAACCUCUCUAUGG
RNA 2: GGGAAUGGAUCCACAUCUACGAAUUCUCGCCAUAGAGAGGUUAUCCGCUCAUACAGAUCGGAAGAGCACACGU
B18: target 1 insC 3' of 13,insG 3' of 3 (mixed)
RNA 1: CACCCGUGCAAAAAUGCAGGGGUCUAAAACUGAGCGGAUAACCUCUCUAUGG
RNA 2: GGGAAUGGAUCCACAUCUACGAAUUCGUACCAUAGAGAGCGUUAUCCGCUGCACCGAGAUCGGAAGAGCACACGU
B19: target 1 MT 5'PFS AUU 3'PFS AAG (mixed)
RNA 1: CACCCGUGCAAAAAUGCAGGGGUCUAAAACUGAGCGGAUAACCUCUCUAUGG
RNA 2: GGGAAUGGAUCCACAUCUACGAAUUCAUUCCAUAGAGAGGUUAUCCGCUCAAAGAGAUCGGAAGAGCACACGU
B20: target 1 MT 5'PFS GGG 3'PFS AGA (mixed)
RNA 1: CACCCGUGCAAAAAUGCAGGGGUCUAAAACUGAGCGGAUAACCUCUCUAUGG
RNA 2: GGGAAUGGAUCCACAUCUACGAAUUCGGGCCAUAGAGAGGUUAUCCGCUCAAGAAGAUCGGAAGAGCACACGU
B21: target 1 MT 5'PFS AGA 3'PFS AGA (mixed)
RNA 1: CACCCGUGCAAAAAUGCAGGGGUCUAAAACUGAGCGGAUAACCUCUCUAUGG
RNA 2: GGGAAUGGAUCCACAUCUACGAAUUCAGACCAUAGAGAGGUUAUCCGCUCAAGAAGAUCGGAAGAGCACACGU
B22: target 1 MT 5'PFS CAC 3'PFS AAC (mixed)
RNA 1: CACCCGUGCAAAAAUGCAGGGGUCUAAAACUGAGCGGAUAACCUCUCUAUGG
RNA 2: GGGAAUGGAUCCACAUCUACGAAUUCCACCCAUAGAGAGGUUAUCCGCUCAAACAGAUCGGAAGAGCACACGU
B23: target 1 MT 5'PFS GGG 3'PFS GGG (mixed)
RNA 1: CACCCGUGCAAAAAUGCAGGGGUCUAAAACUGAGCGGAUAACCUCUCUAUGG
RNA 2: GGGAAUGGAUCCACAUCUACGAAUUCGGGCCAUAGAGAGGUUAUCCGCUCAGGGAGAUCGGAAGAGCACACGU
B24: target 1 MT 5'PFS ACA 3'PFS UAG (mixed)
RNA 1: CACCCGUGCAAAAAUGCAGGGGUCUAAAACUGAGCGGAUAACCUCUCUAUGG
RNA 2: GGGAAUGGAUCCACAUCUACGAAUUCACACCAUAGAGAGGUUAUCCGCUCAUAGAGAUCGGAAGAGCACACGU
B25: target 1 MT 5'PFS CUU 3'PFS CGC (mixed)
RNA 1: CACCCGUGCAAAAAUGCAGGGGUCUAAAACUGAGCGGAUAACCUCUCUAUGG
RNA 2: GGGAAUGGAUCCACAUCUACGAAUUCCUUCCAUAGAGAGGUUAUCCGCUCACGCAGAUCGGAAGAGCACACGU
B26: target 1 MT 5'PFS GGG 3'PFS GGU (mixed)
RNA 1: CACCCGUGCAAAAAUGCAGGGGUCUAAAACUGAGCGGAUAACCUCUCUAUGG
RNA 2: GGGAAUGGAUCCACAUCUACGAAUUCGGGCCAUAGAGAGGUUAUCCGCUCAGGUAGAUCGGAAGAGCACACGU
B27: target 1 MT 5'PFS GGG 3'PFS GGC (mixed)
RNA 1: CACCCGUGCAAAAAUGCAGGGGUCUAAAACUGAGCGGAUAACCUCUCUAUGG
RNA 2: GGGAAUGGAUCCACAUCUACGAAUUCGGGCCAUAGAGAGGUUAUCCGCUCAGGCAGAUCGGAAGAGCACACGU

Results on 27 molecules are retold here after publication PMC10786891, “Massively parallel profiling of RNA-targeting CRISPR-Cas13d”.

This series deals with T1, EsCas13d, nuclease-dead. Briefly: crRNA (strand 1, pre-loaded); Mg2+; 40 mM Tris-HCl pH 7.5, 150 mM NaCl, 6 mM MgCl2, 1 mM DTT, 0.1% Tween-20, 0.2 mg/ml BSA; 25 C; 10 min per concentration, then washed. To be noted: tags: His6-TwinStrep-SUMO cleaved; N-terminal SNAP kept (SNAP-Surface 488); label: 3' end held by stalled T7 RNA polymerase.
As to B1, binding was characterised by a dissociation constant (Kd) of 24.5 ± 6.5 nM.

The molecule B2 came in with a Kd of 14.4 ± 1.9 nM.

Molecule B3 gave a Kd of 50.5 ± 22.5 nM.

B4 displayed a Kd of 30.4 ± 4.65 nM.

Take B5: the Kd was determined as 27 ± 5.5 nM.

B6: the Kd came out at 86.5 ± 38.5 nM.

Consider B7, for which the Kd is around 50 nM.

Take B8: the Kd was 20.5 ± 4.5 nM.

The molecule B9 showed a Kd of around 115 nM.

B10 had a Kd of 34.5 ± 8 nM.

Take B11: the Kd was 42 ± 17 nM.

B12 registered a Kd of around 42.5 nM.

In turn, B13 yielded a Kd of 42 ± 9 nM.

Turning to B14, the Kd worked out at 7.15 ± 3.05 nM.

Molecule B15 came in with a Kd of 50.5 ± 8.5 nM.

In turn, B16 yielded an equilibrium dissociation constant (Kd) of 44.5 ± 18 nM.

Molecule B17 showed a Kd of 22.5 ± 9 nM.

B18 registered an equilibrium dissociation constant (Kd) of 5.58 ± 0.3 nM.

B19 came in with a Kd of 95 ± 40 nM.

Consider B20, for which the Kd was 23.9 ± 3.1 nM.

In the case of B21, the affinity, expressed as Kd, was 70.5 ± 31.5 nM.

The molecule B22 gave a Kd of around 34.5 nM.

Take B23: the Kd came to 65.5 ± 14 nM.

The molecule B24 gave a Kd of 11.2 ± 4.95 nM.

B25 had a Kd of 18 ± 6 nM.

As for B26, the dissociation constant (Kd) was 61 ± 14 nM.

B27 came in with a Kd of 26.5 ± 5 nM.
